Measured values published in patent publication EP4674868A1 (Jiangsu Hengrui Pharmaceuticals Co., Ltd., dated 2026).
Where two headings read alike, the source gives them in different places.

Tests used:
[1] = target: T1, human 4-1BB on the surface of HEK293 cells (HEK293-Hu4-1BB) (human, UniProt Q07011 24-255); experiment: FACS, HEK293-Hu4-1BB cells
T1 construct: whole, on cells; also called CD137; cell strain highly expressing human 4-1BB

[2] = target: T1, human 4-1BB on the surface of HEK293 …; experiment: FACS, HEK293-Hu4-1BB cells; remark: listed apart in the source
[3] = target: T1, human 4-1BB on the surface of HEK293 …; experiment: cell-based or functional assay
[4] = target: T1, human 4-1BB on the surface of HEK293 …; experiment: cell-based or functional assay; remark: listed apart in the source
[5] = target: T2, human CD40 on the surface of HEK293 cells (HEK293-HuCD40) (human, UniProt P25942 21-277); experiment: cell-based or functional assay
[6] = target: T3, h-FAP-His (recombinant human fibroblast activation protein, Leu26-Asp760, His-tagged) (human, UniProt Q12884 26-760); experiment: SPR, antibody captured by anti-human IgG (Fc) on CM5 chip, h-FAP-His as analyte
T3 construct: range 26-760; Bought protein with a His tag; also called human FAP-His protein; His-tagged FAP recombinant protein

[7] = target: T2, human CD40 on the surface of HEK293 …; experiment: FACS, HEK293-HuCD40 cells
[8] = target: T4, human FAP on the surface of CHO-K1 cells (CHO-K1-HuFAP) (human, UniProt Q12884 1-760); experiment: FACS, CHO-K1-HuFAP cells
T4 construct: whole, on cells; also called CHO cell line overexpressing human FAP; FAP on the surface of CHO-K1-HuFAP cells

[9] = target: T2, human CD40 on the surface of HEK293 …; experiment: cell-based or functional assay; remark: listed apart in the source
[10] = target: T1, human 4-1BB on the surface of HEK293 …; experiment: FACS, HEK293-Hu4-1BB cells; remark: listed apart in the source
[11] = target: T4, human FAP on the surface of CHO-K1 …; experiment: FACS, CHO-K1-HuFAP cells; remark: listed apart in the source
[12] = target: T2, human CD40 on the surface of HEK293 …; experiment: FACS, HEK293-HuCD40 cells; remark: listed apart in the source
[13] = target: T1, human 4-1BB on the surface of HEK293 …; experiment: FACS, HEK293-Hu4-1BB cells; remark: listed apart in the source
[14] = target: T1, human 4-1BB on the surface of HEK293 …; experiment: cell-based or functional assay; remark: listed apart in the source

B1: C5_V2-YTIQ linked to human IgG1-Fc (Fc fusion)
chain: QVQLVESGGGLVQPGGSLRLSCSASGFTFSSYAMSWVRQAPGKGLEWVSDINSGGQSTFYADSVKGRFTISRDNAKNTLYLQMNSLRAEDTAVYYCAKHPLTYTIATMNDYDYWGQGTQVTVSSEPKSADKTHTCPPCPAPELLGGPSVFLFPPKPKDTLMISRTPEVTCVVVDVEHEDPEVKFNWYVDGVEVHNAKTKPREEQYNSTYRVVSVLTVLHQDWLNGKEYKCKVSSKAFPAPIEKTISKAKGQPREPQVYTLPPSRDELTKNQVSLTCLVKGFYPSDIAVEWESNGQPENNYKTTPPVLDSDGSFFLYSKLTVDKSRWQQGNVFSCSVMHEALHNHYTQKSLSLSPGK
An EC50 [1] of 0.7 nM and a Maximum fluorescence value [1] of 51700 were found for B1 in this work.

B2: humanized anti-4-1BB nanobody C5_V3 linked to human IgG1-Fc (Fc fusion)
chain: QVQLVESGGGLVQPGGSLRLSCSASGFTFSSYAMSWVRQAPGKGLEWVSDINSGGESTFYEDSVKGRFTISRDNAKNTLYLQMNSLKPEDTAVYYCAKHPLTFTIATMNDYDYWGQGTLVTVSSEPKSADKTHTCPPCPAPELLGGPSVFLFPPKPKDTLMISRTPEVTCVVVDVEHEDPEVKFNWYVDGVEVHNAKTKPREEQYNSTYRVVSVLTVLHQDWLNGKEYKCKVSSKAFPAPIEKTISKAKGQPREPQVYTLPPSRDELTKNQVSLTCLVKGFYPSDIAVEWESNGQPENNYKTTPPVLDSDGSFFLYSKLTVDKSRWQQGNVFSCSVMHEALHNHYTQKSLSLSPGK
An EC50 [2] of 1.65 nM was found for B2 in this work.

B3: humanized anti-4-1BB nanobody C5_V1 linked to human IgG1-Fc (Fc fusion)
chain: QVQLVESGGGLVQPGGSLRLSCSASGFTFSSYAMSWVRQAPGKGLEWVSDINSGGESTFYEDSVKGRFTISRDNAKNTLYLQMNSLRAEDTAVYYCARHPLTFTIATMNDYDYWGQGTLVTVSSEPKSADKTHTCPPCPAPELLGGPSVFLFPPKPKDTLMISRTPEVTCVVVDVEHEDPEVKFNWYVDGVEVHNAKTKPREEQYNSTYRVVSVLTVLHQDWLNGKEYKCKVSSKAFPAPIEKTISKAKGQPREPQVYTLPPSRDELTKNQVSLTCLVKGFYPSDIAVEWESNGQPENNYKTTPPVLDSDGSFFLYSKLTVDKSRWQQGNVFSCSVMHEALHNHYTQKSLSLSPGK
With B3 the “Activation of HEK293-4-1BB cells (NF-κB reporter), Fold change in Emax” value [3] was 1.14 fold, the “FcγRIIb-mediated activation of HEK293-4-1BB cells (NF-κB reporter), Fold change in Emax” value [3] was 2.28 fold and the EC50 [2] was 3.79 nM. It also gave a Maximum fluorescence value [2] of 1040.

B4: MP0310 (FAP/4-1BB bispecific antibody molecule, control) (other)
chain: GSDLGKKLLEAARAGQDDEVRELLKAGADVNAKDYFSHTPLHLAARNGHLKIVEVLLKAGADVNAKDFAGKTPLHLAAADGHLEIVEVLLKAGADVNAQDIFGKTPADIAADAGHEDIAEVLQKAAGSPTPTPTTPTPTPTTPTPTPTGSDLGKKLLEAARAGQDDEVRELLKAGADVNAKDVLGWTPLHLAAFEGHLEIVEVLLKAGADVNAKDKKGWTPLQLAARTGHLEIVEVLLKAGADVNAKDHIGATPLHLAAWQGHPEIVEVLLKAGADVNAQDKSGKTPADLAADAGHEDIAEVLQKAAGSPTPTPTTPTPTPTTPTPTPTGSDLGQKLLKAAQEGQDDEVRELLKAGADVNAKDLRGITPLHVAAWQGHLEIVEVLLKAGADVNAKDSKGETPLHLAAFRGHLEIVEVLLKAGADVNAQDQQGETPADLAALAGHVDIAEVLQKAAGSPTPTPTTPTPTPTTPTPTPTGSDLGQKLLKAAQEGQDDEVRELLKAGADVNAKDLRGITPLHVAAWQGHLEIVEVLLKAGADVNAKDSKGETPLHLAAFRGHLEIVEVLLKAGADVNAQDQQGETPADLAALAGHVDIAEVLQKAAGSPTPTPTTPTPTPTTPTPTPTGSDLGKKLLEAARAGQDDEVRELLKAGADVNAKDYFSHTPLHLAARNGHLKIVEVLLKAGADVNAKDFAGKTPLHLAAADGHLEIVEVLLKAGADVNAQDIFGKTPADIAADAGHEDIAEVLQKAAHHHHHH
With B4 the “4-1BB/NF-κB luciferase reporter, CD40-crosslinked, Fold change in Emax” value [4] was 1.11 fold, the “4-1BB/NF-κB luciferase reporter, FAP-crosslinked, EC50” value [4] was 0.02 nM and the “4-1BB/NF-κB luciferase reporter, FAP-crosslinked, Fold change in Emax” value [4] was 13.8 fold. For the same binder, the “4-1BB/NF-κB luciferase reporter, uncrosslinked, Fold change in Emax” value [4] was 1.01 fold, the “CD40/NF-κB reporter (HEK-Blue CD40L), 4-1BB-crosslinked, Fold change in Emax” value [5] was 1.01 fold and the “CD40/NF-κB reporter (HEK-Blue CD40L), FAP-crosslinked, Fold change in Emax” value [5] was 0.99 fold. For the same binder, the “CD40/NF-κB reporter (HEK-Blue CD40L), uncrosslinked, Fold change in Emax” value [5] was 1.03 fold.

B5: control anti-FAP antibody 28H1 (antibody, V domains shown)
VH: EVQLLESGGGLVQPGGSLRLSCAASGFTFSSHAMSWVRQAPGKGLEWVSAIWASGEQYYADSVKGRFTISRDNSKNTLYLQMNSLRAEDTAVYYCAKGWLGNFDYWGQGTLVTVSS
VL: EIVLTQSPGTLSLSPGERATLSCRASQSVSRSYLAWYQQKPGQAPRLLIIGASTRATGIPDRFSGSGSGTDFTLTISRLEPEDFAVYYCQQGQVIPPTFGQGTKVEIK
For B5, the Kd [6] was 1.31 nM, the “Ratio of KD of 28H1 to KD of test antibody” value [6] was 1 and the “Ratio of Kd of 28H1 to Kd of test antibody” value [6] was 1. The koff [6] was 0.000255 s⁻¹ and the kon [6] was 195000 M⁻¹ s⁻¹.

B6: BNT312 (CD40/4-1BB bispecific antibody molecule, control) (bispecific antibody, human IgG1, kappa)
heavy 1: EVQLVQSGAEVKKPGASVKVSCKTSGYTFTEYIMHWVRQAPGQGLEWMGGIIPNNGGTSYNQKFQGRVTMTVDKSTSTGYMELSSLRSEDTAVYYCTRREVYGRNYYALDYWGQGTLVTVSSASTKGPSVFPLAPSSKSTSGGTAALGCLVKDYFPEPVTVSWNSGALTSGVHTFPAVLQSSGLYSLSSVVTVPSSSLGTQTYICNVNHKPSNTKVDKRVEPKSCDKTHTCPPCPAPEFEGGPSVFLFPPKPKDTLMISRTPEVTCVVVAVSHEDPEVKFNWYVDGVEVHNAKTKPREEQYNSTYRVVSVLTVLHQDWLNGKEYKCKVSNKALPAPIEKTISKAKGQPREPQVYTLPPSREEMTKNQVSLTCLVKGFYPSDIAVEWESNGQPENNYKTTPPVLDSDGSFLLYSKLTVDKSRWQQGNVFSCSVMHEALHNHYTQKSLSLSPGK
light 1: not shown
heavy 2: EVQLVESGGGLVQPGRSLRLSCTASGFSLNDYWMSWVRQAPGKGLEWVGYIDVGGSLYYAASVKGRFTISRDDSKSIAYLQMNSLKTEDTAVYYCARGGLTYGFDLWGQGTLVTVSSASTKGPSVFPLAPSSKSTSGGTAALGCLVKDYFPEPVTVSWNSGALTSGVHTFPAVLQSSGLYSLSSVVTVPSSSLGTQTYICNVNHKPSNTKVDKRVEPKSCDKTHTCPPCPAPEFEGGPSVFLFPPKPKDTLMISRTPEVTCVVVAVSHEDPEVKFNWYVDGVEVHNAKTKPREEQYNSTYRVVSVLTVLHQDWLNGKEYKCKVSNKALPAPIEKTISKAKGQPREPQVYTLPPSREEMTKNQVSLTCLVKGFYPSDIAVEWESNGQPENNYKTTPPVLDSDGSFFLYSRLTVDKSRWQQGNVFSCSVMHEALHNHYTQKSLSLSPGK
light 2: DIVMTQSPSSLSASVGDRVTITCQASEDISSYLAWYQQKPGKAPKRLIYGASDLASGVPSRFSASGSGTDYTFTISSLQPEDIATYYCHYYATISGLGVAFGGGTKVEIKRTVAAPSVFIFPPSDEQLKSGTASVVCLLNNFYPREAKVQWKVDNALQSGNSQESVTEQDSKDSTYSLSSTLTLSKADYEKHKVYACEVTHQGLSSPVTKSFNRGEC
B6 was tested, and the “4-1BB/NF-κB luciferase reporter, CD40-crosslinked, EC50” value [4] was 0.41 nM, the “4-1BB/NF-κB luciferase reporter, CD40-crosslinked, Fold change in Emax” value [4] was 3.56 fold and the “4-1BB/NF-κB luciferase reporter, FAP-crosslinked, Fold change in Emax” value [4] was 1.01 fold. For the same binder, the “4-1BB/NF-κB luciferase reporter, uncrosslinked, Fold change in Emax” value [4] was 1.1 fold, the EC50 [7] was 2.77 nM and the Maximum fluorescence value [7] was 109000. The Maximum fluorescence value [8] was 449, the “CD40/NF-κB reporter (HEK-Blue CD40L), 4-1BB-crosslinked, EC50” value [9] was 1.03 nM and the “CD40/NF-κB reporter (HEK-Blue CD40L), 4-1BB-crosslinked, Fold change in Emax” value [9] was 5.97 fold. The “CD40/NF-κB reporter (HEK-Blue CD40L), FAP-crosslinked, Fold change in Emax” value [9] was 5.41 fold, the “CD40/NF-κB reporter (HEK-Blue CD40L), uncrosslinked, Fold change in Emax” value [9] was 5.06 fold and the EC50 [10] was 0.77 nM. It also gave a Maximum fluorescence value [10] of 29300, a Maximum fluorescence value [11] of 77 and an EC50 [12] of 6.78 nM. For the same binder, the Maximum fluorescence value [12] was 108000, the “CD40/NF-κB reporter (HEK-Blue CD40L), 4-1BB-crosslinked, EC50” value [5] was 0.69 nM and the “CD40/NF-κB reporter (HEK-Blue CD40L), 4-1BB-crosslinked, Fold change in Emax” value [5] was 9.51 fold. For the same binder, the “CD40/NF-κB reporter (HEK-Blue CD40L), FAP-crosslinked, Fold change in Emax” value [5] was 6.27 fold, the “CD40/NF-κB reporter (HEK-Blue CD40L), uncrosslinked, Fold change in Emax” value [5] was 7.66 fold and the EC50 [13] was 2.17 nM. The Maximum fluorescence value [13] was 25700, the “4-1BB/NF-κB luciferase reporter, CD40-crosslinked, EC50” value [14] was 1.65 nM and the “4-1BB/NF-κB luciferase reporter, CD40-crosslinked, Fold change in Emax” value [14] was 4.76 fold. The “4-1BB/NF-κB luciferase reporter, FAP-crosslinked, EC50” value [14] was 0.293 nM, the “4-1BB/NF-κB luciferase reporter, FAP-crosslinked, Fold change in Emax” value [14] was 1.19 fold and the “4-1BB/NF-κB luciferase reporter, uncrosslinked, Fold change in Emax” value [14] was 1.09 fold.
